Measurements taken from publication PMC11626198, “Molecular insights into the interaction between a disordered protein and a folded RNA”.

T1: SERF (Small ERDK-Rich Factor) (Saccharomyces cerevisiae, UniProt Q3E7B7)
T1 sequence: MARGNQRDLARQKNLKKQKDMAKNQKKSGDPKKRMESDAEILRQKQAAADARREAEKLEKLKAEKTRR

B1: FAM-TAR (structured_RNA)
RNA: GGCAGAUCUGAGCCUGGGAGCUCUCUGCC
B2: FAM-(rU)30 (ssRNA)
RNA: UUUUUUUUUUUUUUUUUUUUUUUUUUUUUU

Biological target: T1, SERF (Small ERDK-Rich Factor)
Assay: fluorescence anisotropy; 1:1 model, KD,app; Anisotropy buffer not given in the material; NMR at 27 C; native IM-MS in 100 mM ammonium acetate pH 7.5
Details: protein: recombinant, tags: His6-SUMO removed by ULP1 (scarless)

Row | Binder | Kd (hairpin with UCU bulge and hexanucleotide loop) [nM] | Kd (single strand) [nM]
1 | B1 | 670 ± 40 | –
2 | B2 | – | 1900 ± 200
